Data: paper PMC6318282, “Completion of the cytosolic post-chorismate phenylalanine biosynthetic pathway in plants” (Nature Communications, 2019)

Tests used:
purified protein [1] = substrate: C=C(O[C@@H]1C=C(C(=O)O)C=C[C@H]1O)C(=O)O; assay: purified protein; type: biochemical, Petunia x hybrida; conditions: 20 mM Tris-HCl pH 8.0, 1 mM EDTA, 37 °C
purified protein [2] = substrate: O=C(O)C(=O)CC1(C(=O)O)C=CC(O)C=C1; assay: purified protein; type: biochemical, Petunia x hybrida; conditions: 20 mM Tris-HCl pH 8.0, 1 mM EDTA, 37 °C

B1: PhCM2 (Petunia x hybrida) (protein)
chain: MACGDYDDKLSLDLIRDSLIRQEDTIIFNLIERIKFPINSTLYKKPSSWFPDFTGSLFQYLFQETEALQSKVGRYLSPEENPFFPDNLPASIVPPSKCPPVLHPVAESININEKILDVYLNQLLPLFCTEADEGNYATTAACDIQLLQAISRRIHYGKFVAEVKFRDCSDEYTPLILAQQDRDALMKLLTFEVVEEMVKKRVAKKAMIFGQEVTLVDNAKEVKCKVDPLLVSRLYDEWIMPLTKHVQVEYLLRRLDQNKLTSI
notes: coding region, N-terminal 6xHis tag (pET-28a), E. coli, Ni-NTA
With B1 the Km (purified protein [1]; reaction volume 225 μl) was 8.6 ± 1.2 µM and the Vmax (purified protein [1]; reaction volume 225 μl) was 114 µmol/min/mg.

B2: PhADT3S (Petunia x hybrida) (protein)
chain: MHGAQLRVAYQGVPGAYSEAAAGKAYPKCEAIPCDQFEVAFQAVELWIADRAVLPIENSLGGSIHRNYDLLLRHRLHIVGEVQLPVHHCLLALPGVRKEYLTRVISHPQALAQCELTLTKLGLNVAREAVDDTAGAAEYIAANNLRDTAAIASSRAAELYGLDILEQGIQDDLSNVTRFVMLAREPIIPRTDRPFKTSIVFAHDKGTSVLFKVLSAFAFRNISLTKIESRPHRNRPIRLVDDANVGTAKHFEYMFYVDFEASMADVRAQNALAEVQEFTSFLRVLGSYPMDMTPWSPSRDA
notes: short isoform starting at second in-frame ATG (133 residues downstream of first Met), intact catalytic and ACT domains, about 33 kD, N-terminal 6xHis tag (pET-28a), E. coli, Ni-NTA
Work on B2 yielded a Km (purified protein [2]) of 433 ± 73 µM and a Vmax (purified protein [2]) of 0.113 µmol/min/mg.

B3: PhCM1 (Petunia x hybrida) (protein)
chain: QASATSLGLGNKNRVDETESYTLDGIRHSLIRQEDSIIFSLVERAQYCYNAETYDPDVFAMDGFHGSLVEYIVRETEKLHATVGRYKSPDEHPFFPKVLPEPVLPPMQYPKVLHPIADSININVKIWEMYFENLLPRLVKEGDDGNYGSTAVCDTICVQALSKRIHYGKFVAEAKYRASPEVYNAAIRAQDRNGLMDLLTYPAVEEAIKRRVEIKTRTYGQELHINGPENGGDPVYKIKPSLVAELYGDWIMPLTKEVQVQYLLRRLD
For B3, the Km (purified protein [1]) was 174 ± 27 µM and the Vmax (purified protein [1]) was 45.7 µmol/min/mg.

B4: PhADT3L (Petunia x hybrida) (protein)
chain: AGAAAVNTGVVNTPASNNTAGHVGASRTDWQSSCAILASKVVSQQQDTEKSGGAGNITAVNGHKILNLDLLPVESNRAKPLTITDLSPAPMHGAQLRVAYQGVPGAYSEAAAGKAYPKCEAIPCDQFEVAFQAVELWIADRAVLPIENSLGGSIHRNYDLLLRHRLHIVGEVQLPVHHCLLALPGVRKEYLTRVISHPQALAQCELTLTKLGLNVAREAVDDTAGAAEYIAANNLRDTAAIASSRAAELYGLDILEQGIQDDLSNVTRFVMLAREPIIPRTDRPFKTSIVFAHDKGTSVLFKVLSAFAFRNISLTKIESRPHRNRPIRLVDDANVGTAKHFEYMFYVDFEASMADVRAQNALAEVQEFTSFLRVLGSYPMDMTPWSPSRDA
Protein B4 has a Km (purified protein [2]) of 358 ± 32 µM and a Vmax (purified protein [2]) of 0.125 µmol/min/mg.
